In patent US9724426B2, “Agents, uses and methods” (AFFINICON APS, priority 2009, dated 2017):

Tests used:
[1] = molecular target: T1, CD163 on peripheral blood dendritic cells (Homo sapiens, UniProt Q86VB7); assay: Flow cytometry of CD163 expression on peripheral blood dendritic cells; assay type: cell-based; details: CD14-ILT3+HLA-DR+ dendritic cells
T1 construct: endogenous in cells; host or cells: human peripheral blood monocytes, monocyte-derived macrophages, blood dendritic cells
From the text: Freshly drawn peripheral whole blood samples (approx. 3×10^6 cells) were stained with isotype-matched control antibody (Mouse IgG1 PE, k isotype control, MOPC-21, BD Pharmingen™, San Diego, Calif., USA) or a relevant antibody (anti-CD3 FITC, UCHT1, BD Biosciences, San Diego, Calif., USA; anti-CD11c FITC, KB90, DAKO A/S, Glostrup, Denmark; anti-CD14 FITC, RMO52, IOTests®, Beckman and Coulter, Marseille, France; anti-CD16 FITC, 3G8, BD Biosciences, San Diego, Calif., USA; anti-CD19 FITC, SJ25C1, BD Biosciences, San Diego, Calif., USA; anti-CD20 FITC, CAT 13.6E12, Diatec.com A/S, Oslo, Norway; anti-CD56 FITC, NCAM16.2, BD Biosciences, San Diego, Calif., USA; anti-CD91 FITC, A2MR-a2, BD Biosciences, San Diego, Calif.; anti-HLA-DR FITC, EDU-1, Diatec.com A/S, Oslo, Norway; anti-CD163 PE, MAC2-158, IQ Products, Groningen, The Netherlands; anti-CD163 PE, GHI/61, BD Biosciences, CA, USA; anti-ILT3/CD85k PE-Cy5, ZM3.8, IOTests®, Beckman and Coulter, Marseille, France; anti-HLA-DR PerCP, L234, BD Biosciences, San Diego, Calif.; anti-CD4 APC, EDU-2, Diatec.com A/S, Oslo, Norway; anti-CD14 APC, 18D11, Diatec.com A/S, Oslo, Norway) for 15 minutes at room temperature in the dark. […] For CD163 density quantitation, flow cytometric estimation of antibodies bound/cell (ABCs) was performed using Quantibrite PE beads (Becton Dickinson, San Jose, Calif., USA) as recommended by the manufacturer. […]

[2] = molecular target: T2, CD163 receptor on surface of human macrophages (Homo sapiens, UniProt Q86VB7); assay: Binding and uptake of fluorescently labeled CD163 antibodies in monocyte-derived macrophages; assay type: cell-based; details: 0 min; macrophages stimulated with 200 nM dexamethasone
T2 construct: endogenous in cells; host or cells: human peripheral blood monocytes, monocyte-derived macrophages, blood dendritic cells
Method: Monocytes were isolated from PBMC by negative selection using magnetic beads from Dynal (Dynabeads® MyPure™ Monocyte Kit 2; Invitrogen A/S, Taastrup, Denmark) according to instructions provided by the manufacturer. Monocyte preparations were more than 95% (CD14^+) pure determined by flow cytometry. The isolated cells were washed twice with phosphate-buffered saline. Monocyte-derived macrophages (MDMs) were prepared by cell culture of monocytes (approximately 1×10^7 cells) for 4 days in 5% CO2 and 37° C. in RPMI 1640 media (RPMI 1640+25 mM HEPES+I-glutamine) (Invitrogen Corporation, Carlsbad, Calif., USA) with 20% FCS containing 100 ng/ml of M-CSF. MDMs were then detached from the flask by incubation with cell dissociation buffer (Invitrogen A/S, Taastrup, Denmark) for 30 minutes at 40 °C, then flushed, and scraped. […]
MDMs or CHO cells were washed with 4° C. cold D-PBS, pH 7.4, containing 1% BSA in Lab-Tek™ Chamber Slides (Thermo Fisher Scientific, Roskilde, Denmark). […] Fluorescence was visualized using a Zeiss Axiovert 200M microscope (Carl Zeiss GmbH, Jena, Germany) with an ×100 oil-immersion objective. […] Alternatively, immunostained cells were analyzed by confocal immunofluorescence microscopy using a Zeiss LSM-510 confocal microscope (Carl Zeiss GmbH, Jena, Germany). […]

T1 sequence (Q86VB7 42-1156): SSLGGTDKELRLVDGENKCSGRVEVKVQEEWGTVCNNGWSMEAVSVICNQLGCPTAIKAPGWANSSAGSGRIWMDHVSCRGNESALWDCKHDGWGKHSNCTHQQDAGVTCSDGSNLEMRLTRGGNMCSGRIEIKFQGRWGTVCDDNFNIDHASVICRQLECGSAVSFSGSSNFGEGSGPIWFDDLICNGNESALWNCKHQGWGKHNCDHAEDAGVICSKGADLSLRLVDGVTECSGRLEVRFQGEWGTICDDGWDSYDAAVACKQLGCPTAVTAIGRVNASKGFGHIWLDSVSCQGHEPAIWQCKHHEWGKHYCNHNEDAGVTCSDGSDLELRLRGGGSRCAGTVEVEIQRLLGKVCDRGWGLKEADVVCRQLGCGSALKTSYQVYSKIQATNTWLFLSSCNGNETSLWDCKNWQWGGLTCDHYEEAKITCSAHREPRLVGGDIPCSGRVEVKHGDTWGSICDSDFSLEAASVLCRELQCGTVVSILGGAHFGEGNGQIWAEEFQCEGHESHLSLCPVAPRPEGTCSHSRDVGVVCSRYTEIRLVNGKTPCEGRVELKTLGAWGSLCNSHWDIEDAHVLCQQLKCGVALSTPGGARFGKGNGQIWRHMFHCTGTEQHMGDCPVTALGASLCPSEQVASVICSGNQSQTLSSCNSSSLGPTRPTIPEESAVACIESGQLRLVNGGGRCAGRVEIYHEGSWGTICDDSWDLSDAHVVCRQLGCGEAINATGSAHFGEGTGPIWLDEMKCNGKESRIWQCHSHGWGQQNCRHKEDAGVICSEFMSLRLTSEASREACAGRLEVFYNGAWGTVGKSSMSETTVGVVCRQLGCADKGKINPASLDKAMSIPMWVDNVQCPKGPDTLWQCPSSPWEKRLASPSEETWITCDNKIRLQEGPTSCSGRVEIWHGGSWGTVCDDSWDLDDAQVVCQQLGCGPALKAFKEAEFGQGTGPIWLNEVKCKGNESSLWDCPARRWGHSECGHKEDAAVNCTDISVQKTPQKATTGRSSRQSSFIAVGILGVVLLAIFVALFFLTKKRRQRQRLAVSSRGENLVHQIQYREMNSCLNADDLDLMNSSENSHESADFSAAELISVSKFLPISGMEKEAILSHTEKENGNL
T2 sequence (Q86VB7 42-1156): as above

B1: Mac2-158: murine anti-human CD163 mAb binding SRCR domain 1; VH SEQ ID NO:20, VL SEQ ID NO:21; IQ Products (antibody, V domains shown)
VH: DVQLQESGPGLVKPSQSLSLTCTVTGYSITSDYAWNWIRQFPGNKLEWMGYITYSGITNYNPSLKSQISITRDTSKNQFFLQLNSVTTEDTATYYCVSGTYYFDYWGQGTTLTVSS
VL: SVVMTQTPKSLLISIGDRVTITCKASQSVSSDVAWFQQKPGQSPKPLIYYASNRYTGVPDRFTGSGYGTDFTFTISSVQAEDLAVYFCGQDYTSPRTFGGGTKLEIKRA
modifications: Mac2-158 VH sequence; Mac2-158 VL sequence
notes: IQ Products
fraction of peripheral blood dendritic cells recognized as CD163 expressing [1]: 32.3%
cell surface staining (immunofluorescence) [2]: pronounced cell surface staining
